Results: patent US20100009923A1

Target: … (MimA2) presented by H-2D^b on peptide-pulsed RMA-S cells (mouse) (UniProt P01899)
Assay: cell-based or functional assay

Sequence of … (MimA2) presented by H-2D^b on peptide-pulsed RMA-S cells (mouse) (P01899 25-362): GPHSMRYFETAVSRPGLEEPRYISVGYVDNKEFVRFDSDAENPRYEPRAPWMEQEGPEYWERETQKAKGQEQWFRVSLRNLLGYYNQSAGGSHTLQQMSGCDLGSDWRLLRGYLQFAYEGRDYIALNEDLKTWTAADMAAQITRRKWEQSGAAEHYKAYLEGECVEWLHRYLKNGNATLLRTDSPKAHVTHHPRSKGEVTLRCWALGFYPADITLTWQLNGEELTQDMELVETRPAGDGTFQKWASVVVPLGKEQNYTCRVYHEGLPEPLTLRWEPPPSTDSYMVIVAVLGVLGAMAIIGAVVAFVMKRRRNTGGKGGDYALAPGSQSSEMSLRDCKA

TCR of the β cell-autoreactive CD8+ T cell clone AI4 (Vα8/Vβ2)
peptide concentration giving half-maximal activity in the AI4 cytotoxicity assay (51Cr release, E:T 40, RMA-S targets): 10 pM
